In data set [1] the target is T1, papain (cysteine protease) (UniProt P00784).
T1 sequence (looked up): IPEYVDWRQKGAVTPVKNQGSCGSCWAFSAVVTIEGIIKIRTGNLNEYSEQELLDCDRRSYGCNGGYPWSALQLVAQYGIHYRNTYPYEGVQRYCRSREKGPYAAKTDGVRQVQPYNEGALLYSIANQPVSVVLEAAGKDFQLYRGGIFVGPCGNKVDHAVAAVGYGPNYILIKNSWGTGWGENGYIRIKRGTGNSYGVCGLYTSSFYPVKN
Briefly: phage ELISA, papain coated in well, phage diluted 1 in 100, anti-M13/HRP detection. On the technique in general: ELISA stands for enzyme-linked immunosorbent assay.

Data set [2] concerns the target trypsin (serine protease). Briefly: phage ELISA, trypsin coated in well, phage diluted 1 in 100, anti-M13/HRP detection.
Data set [3] concerns the target POP-1 protein: Brassica napus Sta 44G(2) / Sitophilus zeamais SCPc1 protease translational fusion (Brassica napus; Sitophilus zeamais). Briefly: cell-based or functional assay.
Data set [4] deals with T1, papain (cysteine protease). Briefly: cell-based or functional assay.
Data set [5] concerns the target T2, OV7/GST (cysteine protease inhibitor OV7 conjugated to GST), P22085.
T2 chain: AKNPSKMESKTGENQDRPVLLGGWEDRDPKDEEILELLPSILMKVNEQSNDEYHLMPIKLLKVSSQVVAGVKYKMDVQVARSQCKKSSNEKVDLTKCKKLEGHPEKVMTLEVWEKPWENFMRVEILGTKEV

For data set [6], the target named is T3, POV-1 protein: Brassica napus Sta 44G(2) / Onchocerca volvulus OV7 protease inhibitor translational fusion, P22085.
T3 chain: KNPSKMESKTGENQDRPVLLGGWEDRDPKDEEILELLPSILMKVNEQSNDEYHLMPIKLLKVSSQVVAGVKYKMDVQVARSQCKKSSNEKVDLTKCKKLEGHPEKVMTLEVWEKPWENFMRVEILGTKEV

Turning to “M13 wild type or control phage not displaying any foreign protein”, the O.D.410 (O.D. at 410 nm) in data set [1] amounted to 0.043; in data set [2], 0.026.

B1: POV-1 protein: Brassica napus Sta 44G(2) / Onchocerca volvulus OV7 protease inhibitor translational fusion (protein)
chain: KNPSKMESKTGENQDRPVLLGGWEDRDPKDEEILELLPSILMKVNEQSNDEYHLMPIKLLKVSSQVVAGVKYKMDVQVARSQCKKSSNEKVDLTKCKKLEGHPEKVMTLEVWEKPWENFMRVEILGTKEV
As to B1, in data set [3], the Percent Loss of Viability (Alexander staining of pollen, F1 plant POP 2 X POV 20 No. 2) was found to be 19%; the Percent Loss of Viability (Alexander staining of pollen, F1 plant POP 2 X POV 20 No. 3) is 21%; the Percent Loss of Viability (Alexander staining of pollen, F1 plant POP 12 X POV 20 No. 1) stood at 66%; the Percent Loss of Viability (Alexander staining of pollen, F1 plant POP 12 X POV 20 No. 4) worked out at 58%. In addition, in data set [3], the Percent Loss of Viability (Alexander staining of pollen, F1 plant POP 12 X POV 25 No. 1) is 26% and the Percent Loss of Viability (Alexander staining of pollen, F1 plant POP 12 X POV 25 No. 2) is 19%.

B2: recombinant onchocystatin (OV7), cysteine protease inhibitor (protein)
chain: AKNPSKMESKTGENQDRPVLLGGWEDRDPKDEEILELLPSILMKVNEQSNDEYHLMPIKLLKVSSQVVAGVKYKMDVQVARSQCKKSSNEKVDLTKCKKLEGHPEKVMTLEVWEKPWENFMRVEILGTKEV
For B2, in data set [4], the Average Pollen Tube Length (tobacco pollen in vitro, 42 µM papain + 30 µM onchocystatin) worked out at 80 µm and the Pollen Germination (tobacco pollen in vitro, 42 µM papain + 30 µM onchocystatin) amounted to 69%.

B3: papain (cysteine protease) (protein)
chain: IPEYVDWRQKGAVTPVKNQGSCGSCWAFSAVVTIEGIIKIRTGNLNEYSEQELLDCDRRSYGCNGGYPWSALQLVAQYGIHYRNTYPYEGVQRYCRSREKGPYAAKTDGVRQVQPYNEGALLYSIANQPVSVVLEAAGKDFQLYRGGIFVGPCGNKVDHAVAAVGYGPNYILIKNSWGTGWGENGYIRIKRGTGNSYGVCGLYTSSFYPVKN
As for B3, the “percentage of papain protease activity (substrate Pyr-Phe-Leu-pNA, 410 nm) relative to the non-transformed control plant extract” value in data set [5] is reported as 2%; in data set [6], 53% to 61%.

Values taken from patent US20030182691A1.
